Measured values taken from patent US20130084291A1.

Tests used:
[1] = target: TNF-alpha; experiment: cell-based or functional assay
[2] = target: TNF-alpha; experiment: Biacore 3000 SPR; Fc fusion loaded into the flow cell, exposed to TNF

Row | Substance | IC50 (WEHI Assay), normalized to TNFR-h(1)Fc wt (fold of wt (normalized)) [1] | KD (TNF-alpha), normalized to TNFR-h(1)Fc wt (fold of wt (normalized)) [2]
1 | D47N S202N TNFR2-h(1)Fc (Fc fusion) | 1.1 | 4.4
2 | D47N TNFR2-h(1)Fc (Fc fusion) | 1.9 | 1.6
3 | D47N/E155N TNFR2-h(1)Fc (Fc fusion) | 1.6 | 2.6
4 | D47N/G253N TNFR2-h(1)Fc (Fc fusion) | 3 | 55
5 | E155N G253N TNFR2-h(1)Fc (Fc fusion) | 0.57 | 3.6
6 | E155N S202N G253N TNFR2-h(1)Fc (Fc fusion) | 0.25 | 1
7 | S202N G253N TNFR2-h(1)Fc (Fc fusion) | 0.23 | 1.05
8 | T203N P205S TNFR2-h(1)Fc (Fc fusion) | 0.29 | 0.33
9 | T222N TNFR2-h(1)Fc (Fc fusion) | 0.25 | 0.78
